Columns and labels:
Mouse GLP-1R (mouse) = Mouse GLP-1R (mouse) (UniProt O35659)
Human GLP-1R (human) = Human GLP-1R (human) (UniProt P43220)
Human GLP-1R (human), sequence (P43220 24-463): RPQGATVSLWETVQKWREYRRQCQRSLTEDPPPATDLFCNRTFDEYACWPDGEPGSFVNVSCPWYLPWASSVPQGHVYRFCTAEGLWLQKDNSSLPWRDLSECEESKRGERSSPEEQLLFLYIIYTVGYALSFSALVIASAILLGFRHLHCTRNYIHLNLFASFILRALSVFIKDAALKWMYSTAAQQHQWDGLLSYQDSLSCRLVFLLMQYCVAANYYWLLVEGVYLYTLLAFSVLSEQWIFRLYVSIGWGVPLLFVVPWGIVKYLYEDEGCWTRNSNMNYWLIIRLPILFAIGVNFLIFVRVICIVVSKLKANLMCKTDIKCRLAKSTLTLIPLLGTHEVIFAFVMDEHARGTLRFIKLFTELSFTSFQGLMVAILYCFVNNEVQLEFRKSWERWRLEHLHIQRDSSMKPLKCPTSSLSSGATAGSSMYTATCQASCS

Mouse GLP-1R (mouse), sequence (O35659 22-463): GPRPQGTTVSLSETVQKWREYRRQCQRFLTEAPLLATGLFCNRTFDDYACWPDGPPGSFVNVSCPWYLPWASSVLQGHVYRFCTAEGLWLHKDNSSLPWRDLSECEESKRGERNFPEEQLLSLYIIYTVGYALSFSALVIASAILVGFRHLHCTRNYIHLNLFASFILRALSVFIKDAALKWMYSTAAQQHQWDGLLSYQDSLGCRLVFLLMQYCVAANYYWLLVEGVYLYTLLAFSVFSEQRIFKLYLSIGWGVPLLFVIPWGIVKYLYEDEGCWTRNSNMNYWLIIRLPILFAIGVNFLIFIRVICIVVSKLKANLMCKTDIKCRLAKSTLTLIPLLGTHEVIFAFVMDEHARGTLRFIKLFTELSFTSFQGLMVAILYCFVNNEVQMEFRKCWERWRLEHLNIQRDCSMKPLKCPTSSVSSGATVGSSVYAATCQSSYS

Substance | Emax (%), Mouse GLP-1R activation, in vitro cell assay (Mouse GLP-1R (mouse)) | EC50 (nM), Human GLP-1R activation, in vitro cell assay (Human GLP-1R (human)) | EC50 (nM), Mouse GLP-1R activation, in vitro cell assay (Mouse GLP-1R (mouse))
Exendin-4 (from UniProt P26349 48-87) (peptide) | 100% | 0.052 nM | 
Liraglutide (peptide) | 89% |  | 0.185 nM

Source: publication PMC6412877, “Novel Site-Specific Fatty Chain-Modified GLP-1 Receptor Agonist with Potent Antidiabetic Effects” (Molecules, 2019)
